# Assay results taken from paper PMC6382870.
# Tests used:
# [1] = target: MrNVPd (246-371) (Macrobrachium rosenbergii nodavirus (MrNV)); test: SEC; P-domains without the SUMO-tag; column and buffer not stated
# [2] = target: MrNVPd double-mutant K327A/D329A (Macrobrachium rosenbergii nodavirus (MrNV)); test: as above
# [3] = target: MrNVPd double-mutant Y293A/D295A (Macrobrachium rosenbergii nodavirus (MrNV)); test: as above
# [4] = target: PvNV capsid protein (1-368) (Penaeus vannamei nodavirus (PvNV)); test: cryo-EM structure; T = 1 PvNV-LP particles (~22-24 nm) picked from the same sample, icosahedral symmetry, 3.7 Å
# [5] = target: PvNV capsid protein (1-368) (Penaeus vannamei nodavirus (PvNV)); test: cryo-EM structure; T = 3 PvNV-LP particles (~29-35 nm) picked from the assembled sample, 6 mg/mL, icosahedral symmetry, 3.5 Å
# [6] = target: PvNVPd (250-368) (Penaeus vannamei nodavirus (PvNV)); test: SEC; P-domains without the SUMO-tag; column and buffer not stated
substance,measurement,setting,value
MrNVPd (246-371) (domain or fragment),stoichiometry N,[1],2
MrNVPd double-mutant K327A/D329A (domain or fragment),stoichiometry N,[2],2
MrNVPd double-mutant Y293A/D295A (domain or fragment),stoichiometry N,[3],2
PvNV capsid protein (1-368) (natural protein),stoichiometry N,[4],60
same,stoichiometry N,[5],180 copies
PvNVPd (250-368) (domain or fragment),stoichiometry N,[6],2
